Results published in the supplement of paper PMC9170038.

Test system: MS2 coat protein
Test: apparent KD of MS2 coat protein; higher = weaker reporter binding
Conditions: Eterna round: R107
How it was run: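 Titrations with SNAP-549-labelled MS2 coat protein ran in twofold steps from 0.7 or 1.5 nM to 3 µM, each step taking 0.8–1.5 h at the start and 10–20 min toward the end. The targets were designed RNA switches transcribed on-chip from Illumina sequencing clusters, held in 100 mM Tris-HCl pH 7.5, 80 mM KCl, 4 mM MgCl2, without or with constant ligand. Apparent KD was taken per design as the median of normalised cluster binding-curve fits.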

[1] = input ligand: theophylline 20 uM
[2] = input ligand: theophylline 2 mM
[3] = input ligand: tryptophan 2.4 mM

Sequence | apparent KD of MS2 coat protein (input ligand: arginine 13.2 mM) [nM] | apparent KD of MS2 coat protein (input ligand: none) [nM] | apparent KD of MS2 coat protein [1] [nM] | apparent KD of MS2 coat protein [2] [nM] | apparent KD of MS2 coat protein [3] [nM]
ACAUGAGGAUCACCCAUGUGGCGACUUGAUACCAGACCCGCACUAGUCCCUUGGCAGCAACUACGUGAGGGUCACCCAUGUGAAG [vndullin] | 35.5 | 20 | 29.3 | 28.9 | 18.3
CUGCCAUGCAGAGAUACCAGUGAGCCCAGAACAUGAGGAUCACCCAUGUACGCCGCAGACCACCCUUGGCAGCUCUGCAUGGCAG [#$@$%] | 12.7 | 12.9 | 16.8 | 6.75 | 10.9
AGACAUGAGGAUCACCCAUGUAGCAUGGAUACCAGAUCCAGAUUUAUCCCUUGGCAGCUGUGGUAAAGUGAUGGAUUGCUCCUAG [Exclusion - Theophylline A (Freestyle 7)] | 38.1 | – | 55.8 | – | 36.9
GGGAAUGAACGUGAUACCAGAGAUCCGGUCUCCGUCACUCUACAUGAGGAUCACCCAUGUCUCCCUUGGCAGCACCGUCAUCGGG [Exclusion Theophylline B GF 29] | 32.4 | – | 43.3 | – | 29
GAGCUCGUGGACUGGCGUGCUCCGCUCCGUCGAGGACCGGUACGGCCGCCACUCGACAUGAGGAUCACCCAUGUGUGAGCUCGCG [#1 Exclusion - Tryptophan A Attempt #20 (HarryS)] | 35.3 | – | 193 | 134 | –
AUGUCGUUGAAUAUAGCGGCUUGGUGUGAUACCAGAAUGAUCAAAUUCCCUUGGCAGCAUUACAUGAGGAUCACCCAUGUUUAGG [SSTheo A #18] | 18.6 | – | 30.2 | – | 29.3
ACUAGUUGUGCAGAUACCAGGCAUGAGGAUCACCCAUGUUUGGGAUGUUCGCAUCUUCCUGUCCCUUGGCAGCUGUACAUCUAGA [Omei Theo B Exc v6] | 49.9 | 48.5 | 167 | 31.5 | 150
CUUAUUUGCUGAAGGAGCGCCCGAGGAGAAGACAUGAGGAUCACCCAUGUAUAUAGUAUAUGGCAGGUAGGUCGCGGUGGGUAGG [Arginine B Same State; Euphoria Solution 3] | 28.1 | 30 | 65 | 31.2 | 26.9
UCGGGCAGAGCGGCCGCCACUGUUUGGCAUGCGGAUGAAGGAACAUGAGGAUCACCCAUGUAGAUUAGGACCGGGCUUUCGGAGA [cctchmullin] | 19.3 | 21.4 | 32.8 | 25.5 | 22.2
CUAUGCAGGUCGGCCGCCACUACACACAUGAGGAUCACCCAUGUAGUUACUGGGUGAAGUGGCAGUAGGACCGGGACCUGCACAC [Brourdmod18] | 150 | 436 | 458 | 619 | 431
GGUUGGUGUAUAUAUAUAUUGAUUACUGAAGGAGCGGGAAAUAACCCAGGUAGGUCGCAGAGAUCCACAUGAGGAUCACCCAUGU [!0.J] | 31 | 53.7 | 50.2 | 51 | 38.9
AAUAGUCCUCGACAUGGGUAUCACCCAUGUCGAGGACCGGUACGGCCGCCACUCGACAUGAGGAUCACCCAUGUUGAGUGAUAAA [prototype 1.1] | 12.2 | 9.57 | 13.7 | 9.31 | 9.09
CAAGAACAGCCGAAUCUCGGCAGCUGAGAAGGAGCGCGAGAAGUCGCAGGUAGGUCGCUCAGGAAUACAUGAGGAUCACCCAUGU [Usaronen] | 32.4 | 28.4 | 45.9 | 46.8 | 27.9
ACGGAGAUGUCGGCCGCCACUGAACUCAUGUUCAACAUGAGGAUCACCCAUGUACCUUAGUUUAUCAGGACCGGGACAUAUACGA [JR_ExcTryptoB_Sub003] | 79.7 | – | 170 | 183 | –
UCGUUUUAGUCGGCCGCCACUGAACUCAUGUUCAACAUGAGGAUCACCCAUGUACCUUAUUUUAACAGGACCGGGACGUAAUAGA [JR_ExcTryptoB_Sub001] | 165 | – | 264 | 258 | –
GGCACCAGGAGAAGGAGCGUGAAGACAUGAGGAUCACCCAUGUAGAGGCCCGGACAGGGUUCGCAGGUAGGUCGCUCCUGGUGCC [#1 Same State - Arginine B Attempt #10 (HarryS)] | 20.4 | 8.29 | 245 | 122 | 47.2
GCACAAGAUGGAAGGAGCGCUGGUAGGUGACACAUGAGGAUCACCCAUGUGCUCCUUGCCGAGCAGGUAGGUCGCCAUCUUGUGC [SSAB NP+V+V2 #7] | 21.1 | 27.7 | 40.3 | 36.1 | 25.5
ACAUGAGGAUCACCCAUGUAUUACCGGGAAGGAGCGCGUAAGGACGCAGGUAGGUCGCUCGGCGUCGUGCUGGAAAGCACGACGA [#1 Same State - Arginine A Attempt #23 (HarryS)] | 12.9 | 14.1 | 20.7 | 17.9 | 15.1

Sequence | apparent KD of MS2 coat protein (input ligand: arginine 13.2 mM) [nM] | apparent KD of MS2 coat protein (input ligand: none) [nM] | apparent KD of MS2 coat protein [1] [nM] | apparent KD of MS2 coat protein [2] [nM] | apparent KD of MS2 coat protein [3] [nM]
UUUACAUGAGGAUCACCCAUGUGCCAUGAUACCAGACAUGAAAAUGUCCCUUGGCAGCAUGAAGGUACCUCAUCGGGAAACCGAA [Malomerice] | 28.5 | – | 95.7 | – | 53
UGAGUUAGACAAAAGUCUAGCUCUGGUGAAGGAGCGUCCGAAAGGACAGGUAGGUCGCACCACAUGAGGAUCACCCAUGUUCCUU [ArgAS 10 #OpenEnded] | 112 | 227 | 192 | 323 | 216
CCGUCACAUGAGGAUCACCCAUGUGGUGAUACCAGCAGUCGACCCUGCCCUUGGCAGCACAUUAUCAUAAAAGCAAUCAGCAACG [theeternabot_sameState_MS2_Theo_A_41] | 57 | – | 269 | – | 135
GGGCCCGGGCCCGAUACCAGCAGAGAAAACAUAUAUCCUAACAUGAGGAUCACCCAUGUAUGCCCUUGGCAGCGGGCCCGGGCCC [#15 Exclusion-TheophyllineB] | 32.2 | 34.5 | 33.9 | 33.2 | 28.2
ACGCCCAGGUAGGCUUAAUGGGAAAUGGAAGGAGCGCUGAUGCAAGCAGGUAGGUCGCCAACGAACAUGAGGAUCACCCAUGUAA [Same State - Arginine A (Freestyle 2)] | 16.3 | 22.3 | 28.2 | 23.8 | 20.7
GGGCCCGGGCGCGAGCCCGGGCCCAUUGAUACCAGUGAAUGUGUACGCCCUUGGCAGCGAAUCCUAACAUGAGGAUCACCCAUGU [5.D] | 31.4 | – | 76.7 | – | 35.2
GGGCCUGUAGGCAGGCCCACAGCGGGUGAUACCAGCAAUAAAACUUGCCCUUGGCAGCACACAGCUACAUGAGGAUCACCCAUGU [Ismaorxe] | 44.9 | – | 99.3 | – | 69.7
GGCGCGGUGAUGGAAGCCGAACGCUAGGUACGAGGACCGGUACGGCCGCCACUCGUAGUCCUGGGACAUGAGGAUCACCCAUGUA [Same State Trp A GF20] | 39.3 | 119 | 109 | 96 | 51.2
UGUGUCGUCUGAAGGAGCGGCCCUUGAUCCUCGUGAGACAUGAGGAUCACCCAUGUCUCGGGCCAGGUAGGUCGCAGGCGGCACA [#25 Exclusion - Arginine B] | 11.5 | 11.9 | 17.2 | 12.8 | 12.6
GCACGACAUGAGGAUCACCCAUGUGCAGAUACCAGUAAUGUAUAUUACCCUUGGCAGCUGAGUAGAUCUGGAGGGCUAUAGGUAA [Same State Theophylline A GF10] | 11.5 | – | 18.7 | – | 14.1
CAUCGUCGGUCGGCCGCCACUACUGGACAUGAGGAUCACCCAUGUGGCCCGCUGUAUUAACCGCGUAGGACCGGGACGGGAGGUA [theeternabot_exclusion_MS2_Trp_B_4] | 24 | – | 48.6 | 39.3 | –
AGAUUAAAGAGUGAUACCAGACUACAUGAGGAUCACCCAUGUUACAUUUGAGUAGCUUUAGUCCCUUGGCAGCACUUUAUGUACA [JR_Nu_ExcTheophyB_Sub023] | 45.4 | – | 42.9 | – | 54.2
GCAUCCUAGUCGGCCGCCACUGGAUGUACCCAGUGCUGGUACAAACAUGAGGAUCACCCAUGUACCAGGACCGGGACUAGGAUGC [(Trp1)-(MT2)''-(T1)'-(MT2)'-(Ms2)-(Trp2)_Design3] | 23.6 | 12.7 | 16.4 | 12.3 | 9.93
UGUAUGUGAUUUGAUACCAGACCAGCUGGUGGUACCUGAGGAUCACCCAGGUAGGUUUGGGUCCCUUGGCAGCAAAUCGCAUACU [SS Theo B #24 Ms6] | 22 | 20.6 | 23.8 | 11.4 | 21.2
GUCGCUGAGAGAAGGAGCGUGAAGACAUGAGGAUCACCCAUGUAGAGGCGCCGAAGGCGUUCGCAGGUAGGUCGCUCUCAGUGAC [#1 Same State - Arginine B Attempt #21 (HarryS)] | 10.2 | 15.4 | 19.2 | 21.8 | 17.3
AUAAUAGGGAUAAUUAGUUUUAGGUCCAGUCGAGGACCGGUACGGCCGCCACUCGUACAGAAAUACAUGAGGAUCACCCAUGUUA [JR_SSTryptoA_Sub005] | 14 | 13.6 | 21.5 | 15.1 | 16.1
ACAUGGGUCUGAAGGAGCGCGAUAACAUGAGGAUCACCCAUGUAAAGUGGAACAUGAUAAUCGCAGGUAGGUCGCAGUAAAACCC [#26 Same State - Arginine B] | 81.6 | 412 | 293 | 476 | 328
AACACGGUGAUGGUAGCCGGACGCUAGGUACGAGGACCGGUACGGCCGCCACUCGAAGUCCUACGACAUGAGGAUCACCCAUGUA [Same State Trp A GF14] | 46.2 | 64.3 | 89.2 | 81.7 | 47.7
